Holding throughout (assay): cytokine release
The target in experiment [1] is T1, HIV-1 Nef VY8 variant with Leu at P4 peptide on HLA-B*35:01 (human).
T1 peptide: VPLLPMTY

Experiment [2] concerns the target T2, HIV-1 Nef VY8 variant with Met at P3 peptide on HLA-B*35:01 (human).
T2 peptide: VPMRPMTY

Experiment [3] addresses T3, HIV-1 Nef VY8 variant with Ala at P3 peptide on HLA-B*35:01 (human).
T3 peptide: VPARPMTY

Experiment [4] deals with T4, HIV-1 Nef VY8 variant with Val at P3 peptide on HLA-B*35:01 (human).
T4 peptide: VPVRPMTY

Experiment [5] deals with T5, HIV-1 Nef VY8 variant with Phe at P3 peptide on HLA-B*35:01 (human).
T5 peptide: VPFRPMTY

The values that follow come from publication PMC4449784 (2015).

B1: A1-S/B11-J1 (TCR)
alpha AV1-1*01 AJ26*01 CDR3: CAVSDNYGQNFVF
beta BV11-2*01 BJ1-1*01 CDR3: CASSLDLVSTEAFF
For B1, in experiment [1], the binding result is reported as “no recognition”.

B2: H127 (A1-J31/B11) (TCR)
alpha AV1-1*01 AJ31*01 CDR3: CAVTSGDARLMF
beta BV11-1*01 BJ2-7*01 CDR3: CASSSDIVSYEQYF
For B2, the binding result is “recognises” in experiment [2], “no recognition” in experiment [3], “no recognition” in experiment [4] and “no recognition” in experiment [5].

B3: TCR-139 (A1-T/B11-J1) (TCR)
alpha AV1-1*01 AJ26*01 CDR3: CAVTDNYGQNFVF
beta BV11-2*01 BJ1-1*01 CDR3: CASSLDLVSTEAFF
As for B3, the binding result in experiment [2] is listed as “recognises”; in experiment [3], “recognises”; in experiment [1], “no recognition”; in experiment [4] it was “recognises”; in experiment [5], “recognises”.
